Values of other authors as cited in article PMC8864681.

Columns and labels:
Asp67 = Asp67 (UniProt position 1513, LKPGVDYTITV)
Asp14 = Asp14 (UniProt position 40, ERQHMDSSTSA)
Asp28 = Asp28 (UniProt position 50, MTDDIDEVRWE)
Asp26 = Asp26 (UniProt position 26, KLVVVDFSATW)

Substance: Fibronectin, tenth type III cell adhesion module (FN10) (Homo sapiens)
- pKa (Asp67): 4.2

Substance: Ribonuclease A (pancreatic ribonuclease) (Bos taurus)
- pKa (Asp14): 2.0

Substance: T-cell surface antigen CD2 (cell adhesion molecule CD2) (Rattus rattus as printed ('black rat'); the PDB 1HNG source is commonly annotated as rat (Rattus norvegicus))
- pKa (Asp28): 3.57

Substance: Thioredoxin (recombinant human) (Homo sapiens)
- pKa (Asp26): 9.9
